Reference: article PMC2191257

Molecular target: t-Elf-1 (truncated Elf-1) (UniProt P32519 108-304)
Experiment: EMSA

Sequence of t-Elf-1 (truncated Elf-1) (P32519 108-304): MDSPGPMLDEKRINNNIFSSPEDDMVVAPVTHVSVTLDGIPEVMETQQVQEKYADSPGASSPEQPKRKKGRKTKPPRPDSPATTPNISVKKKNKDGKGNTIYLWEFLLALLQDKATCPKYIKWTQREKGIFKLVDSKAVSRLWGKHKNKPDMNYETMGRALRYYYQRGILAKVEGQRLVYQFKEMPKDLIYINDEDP

B1: MSV LTR (dsDNA)
DNA 1: TCGGAGACGGAAGCGCGC
DNA 2: GCGCGCTTCCGTCTCCGA
B1: binds.
